Numbering of substitutions follows the chain as printed.
How the values were obtained:
[1] = target: T1, Mycobacterium marinum GroEL1, recombinant (Mycobacterium marinum, UniProt B2HD10 1-539); experiment: BLI; conditions: both partners purified
T1 construct: also called Mmr GroEL1

[2] = target: T2, Mycobacterium marinum GroEL2, recombinant, biotinylated AVI-tagged form (Mycobacterium marinum, UniProt B2HQP9 1-541); experiment: BLI; conditions: both partners purified
T2 construct: also called Mmr GroEL2; biotinylated GroEL protein

B1: GroEL1 sybody number 18 (VHH)
VHH: QVQLVESGGGLVQAGGSLRLSCAASGFPVKTKHMYWYRQAPGKEREWVAAITSIGMITAYADSVKGRFTISRDNAKNTVYLQMNSLKPEDTAVYYCNVKDWGTNRQAYDYWGQGTQVTVSA
notes: not shown: Myc, C-terminal, kept; His6, C-terminal, kept
With B1 the Kd [1] was about 22 nM.

B2: GroEL2 sybody number 1 (VHH)
VHH: QVQLVESGGGLVQAGGSLRLSCAASGFPVAITYMHWYRQAPGKEREWVAAISSTGKTTWYADSVKGRFTISRDNAKNTVYLQMNSLKPEDTAVYYCLVEVGHYYKGQGTQVTVSA
notes: as for B1
B2 gave a Kd [2] of about 591 nM.

B3: GroEL1 sybody number 5 (VHH)
VHH: QVQLVESGGGLVQAGGSLRLSCAASGFPVEHKQMRWYRQAPGKEREWVAAIESSGQYTIYADSVKGRFTISRDNAKNTVYLQMNSLKPEDTAVYYCFVGVGAGYYGQGTQVTVSA
notes: as for B1
In the case of B3, the Kd [1] is reported as about 127 nM.

B4: GroEL1 sybody number 31 (VHH)
VHH: QVQLVESGGGSVQAGGSLRLSCAASGTIYKIYYLGWFRQAPGKEREGVAALNTFSGGTYYADSVKGRFTVSLDNAKNTVYLQMNSLKPEDTALYYCAAAYDMEGYAWPLYWWHYEYWGQGTQVTVSA
notes: also called GroEL1_SB31; not shown: Myc, C-terminal, kept; His6, C-terminal, kept
B4 was tested, and the Kd [1] was about 92 nM.

B5: GroEL2 sybody number 3 (VHH)
VHH: QVQLVESGGGLVQAGGSLRLSCAASGFPVAYWEMVWYRQAPGKEREWVAAIRSTGWKTVYADSVKGRFTISRDNAKNTVYLQMNSLKPEDTAVYYCTAVYVGVHYKGQGTQVTVSA
notes: also called GroEL2_SB3; not shown: Myc, C-terminal, kept; His6, C-terminal, kept
Work on B5 yielded a Kd [2] of about 18 nM.

B6: GroEL2 sybody number 8 (VHH)
VHH: QVQLVESGGGLVQAGGSLRLSCAASGFPVYMSWMYWYRQAPGKEREWVAAIMSEGAGTWYADSVKGRFTISRDNAKNTVYLQMNSLKPEDTAVYYCNVKDTGSFHAQYDYWGQGTQVTVSA
notes: as for B1
In the case of B6, the Kd [2] is reported as about 13 nM.

B7: GroEL2 sybody number 22 (VHH)
VHH: B6 VHH with M31H, E54D, A56H, F104S, H105T, A106T, Q107I
notes: as for B1
B7 gave a Kd [2] of about 507 nM.

B8: GroEL2 sybody number 9 (VHH)
VHH: B6 VHH with M31Q, E54D, A56S, T101F, S103H, F104S, H105R, A106S, Q107R
notes: also called GroEL2_SB9; not shown: Myc, C-terminal, kept; His6, C-terminal, kept
With B8 the Kd [2] was about 277 nM.

B9: GroEL2 sybody number 33 (VHH)
VHH: B6 VHH with M31Q, S32H, E54Q, K65R, T101L, S103K, F104A, H105E, A106Y, Q107N
notes: as for B1
B9 showed a Kd [2] of about 244 nM.

B10: GroEL2 sybody number 28 (VHH)
VHH: QVQLVESGGGLVQAGGSLRLSCAASGFPVDAYWMYWYRQAPGKEREWVAAIMSSGHGTWYADSVKGRFTISRDNAKNTVYLQMNSLKPEDTAVYSCNVKDKGAQAAWYDYWGQGTQVTVSA
notes: as for B1
In the case of B10, the Kd [2] is reported as about 35 nM.

B11: GroEL2 sybody number 7 (VHH)
VHH: B6 VHH with Y30N, M31D, S32A, E54M, A56F, T101R, S103K, F104E, A106F, Q107S
notes: as for B1
For B11, the Kd [2] was about 100 nM.

B12: GroEL2 sybody number 31 (VHH)
VHH: B6 VHH with Y30W, S32E, A56D, T101F, S103Y, F104N, H105N, A106N, Q107Y
notes: as for B1
B12 gave a Kd [2] of about 66 nM.

B13: GroEL2 sybody number 32 (VHH)
VHH: QVQLVESGGGLVQAGGSLRLSCAASGFPVVSQFMEWHRQAPGKEREWVAAIDSTGYSTFYADSVKGRFTISRDNAKNTVYLQMNSLKPEDTAVYYCNVKDAGEGQEQYDYWGQGTQVTVSA
notes: as for B1
Binder B13 has a Kd [2] of about 153 nM.

B14: GroEL1 sybody number 12 (VHH)
VHH: QVQLVESGGGLVQAGGSLRLSCAASGFPVTQAWMEWYRQAPGKEREWVAAIFSHGGGTFYADSVKGRFTISRDNAKNTVYLQMNSLKPEDTAVYYCNVKDTGERDNWYDYWGQGTQVTVSA
notes: as for B1
Work on B14 yielded a Kd [1] of about 14 nM.

B15: GroEL2 sybody number 10 (VHH)
VHH: QVQLVESGGGLVQAGGSLRLSCAASGFPVKHWYMHWYRQAPGKEREWVAAIQSTGSYTAYADSVKGRFTISRDNAKNTVYLQMNSLKPEDTAVYYCNVKEYGFYHASYDYWGQGTQVTVSA
notes: as for B1
B15 gave a Kd [2] of about 193 nM.

B16: GroEL2 sybody number 19 (VHH)
VHH: QVQLVESGGGLVQAGGSLRLSCAASGFPVEWLEMAWYRQAPGKEREWVAAIYSYGMETEYADSVKGRFTISRDNAKNTVYLQMNSLKPEDTAVYYCNVKDGGHAAWWYDYWGQGTQVTVSA
notes: as for B1
Binder B16 has a Kd [2] of about 366 nM.

B17: GroEL1 sybody number 1 (VHH)
VHH: QVQLVESGGGLVQAGGSLRLSCAASGFPVEQRQMYWYRQAPGKEREWVAAIQSYGKRTKYADSVKGRFTISRDNAKNTVYLQMNSLKPEDTAVYYCVVYVGGGYKGQGTQVTVSA
notes: as for B1
With B17 the Kd [1] was about 130 nM.

B18: GroEL1 sybody number 9 (VHH)
VHH: QVQLVESGGGLVQAGGSLRLSCAASGLPVWQQGMTWYRQAPGKEREWVAAIDSVGAQTYYADSVKGRFTISRDNAKNTVYLQMNSLKPEDTAVYYCAVNVGARYIGQGTQVTVSA
notes: as for B1
Binder B18 has a Kd [1] of about 64 nM.

B19: GroEL2 sybody number 16 (VHH)
VHH: QVQLVESGGGLVQAGGSLRLSCAASGFPVSSSTMTWYRQAPGKEREWVAAIESWGAYTWYADSVKGRFTISRDNAKNTVYLQMNSLKPEDTAVYYCNVKDYDGVADVIYDYWGQGTQVTVSA
notes: as for B1
B19 gave a Kd [2] of about 15 nM.

B20: GroEL2 sybody number 2 (VHH)
VHH: QVQLVESGGGLVQAGGSLRLSCAASGFPVSSSTMTWYRQAPGKEREWVAAIDSVGNETYYADSVKGRFTISRDNAKNTVYLQMNSLKPEDTAVYYCAVFVGSYYGQGTQVTVSA
notes: as for B1
For B20, the Kd [2] was about 157 nM.

B21: GroEL2 sybody number 11 (VHH)
VHH: QVQLVESGGGLVQAGGSLRLSCAASGFPVDSAYMWWYRQAPGKEREWVAAIESNGEYTFYADSVKGRFTISRDNAKNTVYLQMNSLKPEDTAVYYCNVKDTGAHHSYYDYWGQGTQVTVSA
notes: as for B1
B21 showed a Kd [2] of about 271 nM.

B22: GroEL2 sybody number 27 (VHH)
VHH: B21 VHH with D30W, S31K, E56A, A103S, H104D, H105S, S106E, Y107N
notes: as for B1
B22 was tested, and the Kd [2] was about 101 nM.

— publication PMC10308901, “In vitro and ex vivo proteomics of Mycobacterium marinum biofilms and the development of biofilm-binding synthetic nanobodies” (mSystems, 2023)
